Laboratory results published in patent US20190389951A1 (Regeneron, published 2019).
Values belong to the binder of their own block, whether it stands above or below them.

Key:
[1] = molecular target: T1, human PSMA on cells (C4-2, 22RV1, HEK293/hCD20/hPSMA) (human, UniProt Q04609 1-750); assay: electrochemiluminescence cell binding (MSD), C4-2 cells
T1 construct: C4-2 and 22RV1 express PSMA endogenously; also called FOLH1

[2] = molecular target: T2, human CD28 on cells (HEK293/hCD28 cells, human T cells, engineered reporter T-cells) (human, UniProt P10747 19-220); assay: cell-based or functional assay
[3] = molecular target: T2, human CD28 on cells (HEK293/hCD28 …); assay: cell-based or functional assay; remark: listed apart in the source
[4] = molecular target: T2, human CD28 on cells (HEK293/hCD28 …); assay: electrochemiluminescence cell binding (MSD), HEK293-hCD28 cells
[5] = molecular target: T2, human CD28 on cells (HEK293/hCD28 …); assay: electrochemiluminescence cell binding (MSD)
[6] = molecular target: T1, human PSMA on cells (C4-2, 22RV1, …); assay: electrochemiluminescence cell binding (MSD)
[7] = molecular target: T2, human CD28 on cells (HEK293/hCD28 …); assay: cell-based or functional assay; remark: listed apart in the source
[8] = molecular target: T2, human CD28 on cells (HEK293/hCD28 …); assay: flow cytometry, human CD4+ T cells
[9] = molecular target: T2, human CD28 on cells (HEK293/hCD28 …); assay: flow cytometry, human CD8+ T cells
[10] = molecular target: T1, human PSMA on cells (C4-2, 22RV1, …); assay: electrochemiluminescence cell binding (MSD), C4-2 cells; concentrations above 11.1 nM excluded
[11] = molecular target: T3, hCD28.mmh (hCD28 ecto (N19-P152).mmh) (human); assay: SPR (Biacore T-200), antibody captured on anti-human Fc, hCD28.mmh injected, 25 C
T3 construct: also called REGN2011

[12] = molecular target: T1, human PSMA on cells (C4-2, 22RV1, …); assay: flow cytometry, 22RV1 cells
[13] = molecular target: T1, human PSMA on cells (C4-2, 22RV1, …); assay: flow cytometry, C4-2 cells
[14] = molecular target: T4, 6h.hPSMA (recombinant Human PSMA/FOLH1 Protein, R&D, Catalog #4234-ZN) (human, UniProt Q04609 44-750); assay: SPR (Biacore T-200), antibody captured on anti-human Fc, 6h.hPSMA injected, 25 C
T4 construct: Bought protein; also called hPSMA.6H; hPSMA with an N-terminal polyhistidine tag; not shown: N-terminal polyhistidine (6-His) tag
T4 sequence (Q04609 44-750 limits assumed): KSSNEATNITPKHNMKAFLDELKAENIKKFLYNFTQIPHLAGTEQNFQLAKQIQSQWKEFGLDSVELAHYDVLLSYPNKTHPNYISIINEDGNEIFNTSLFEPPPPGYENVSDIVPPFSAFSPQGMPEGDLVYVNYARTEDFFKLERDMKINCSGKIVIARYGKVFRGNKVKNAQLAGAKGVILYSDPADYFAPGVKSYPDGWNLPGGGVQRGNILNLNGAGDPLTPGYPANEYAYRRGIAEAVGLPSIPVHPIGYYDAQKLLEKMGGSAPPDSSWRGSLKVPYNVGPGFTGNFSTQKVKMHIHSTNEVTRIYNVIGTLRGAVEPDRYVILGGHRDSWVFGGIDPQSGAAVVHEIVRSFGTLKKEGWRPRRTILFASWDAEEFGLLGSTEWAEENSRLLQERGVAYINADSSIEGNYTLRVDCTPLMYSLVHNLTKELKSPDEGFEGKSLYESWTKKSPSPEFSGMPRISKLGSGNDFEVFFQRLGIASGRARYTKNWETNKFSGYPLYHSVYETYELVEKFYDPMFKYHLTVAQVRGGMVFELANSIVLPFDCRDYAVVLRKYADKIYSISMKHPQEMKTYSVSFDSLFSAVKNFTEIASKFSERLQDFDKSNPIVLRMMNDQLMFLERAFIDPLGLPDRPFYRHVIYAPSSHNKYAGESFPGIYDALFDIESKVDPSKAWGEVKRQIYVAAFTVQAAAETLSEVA

[15] = molecular target: T2, human CD28 on cells (HEK293/hCD28 …); assay: flow cytometry, human CD2+ T cells
[16] = molecular target: T3, hCD28.mmh (hCD28 ecto (N19-P152).mmh); assay: SPR (Biacore), captured antibody, soluble hCD28 injected, 37 C
[17] = molecular target: T4, 6h.hPSMA (recombinant Human PSMA/FOLH1 …); assay: SPR (Biacore), captured antibody, 10 nM hPSMA.6H row, 37 C
[18] = molecular target: T4, 6h.hPSMA (recombinant Human PSMA/FOLH1 …); assay: SPR (Biacore), captured antibody, 20 nM hPSMA.6H row, 37 C
[19] = molecular target: T1, human PSMA on cells (C4-2, 22RV1, …); assay: flow cytometry (FACS binding), MFI_APC against antibody concentration; the sheet does not name the cells; legend paragraph 55: cancer cell lines with endogenous PSMA; unit taken from the axis Log10 (M)
[20] = molecular target: T1, human PSMA on cells (C4-2, 22RV1, …); assay: electrochemiluminescence cell binding (MSD), supplemental experiment, C4-2 P-7 cells

T1 sequence (Q04609 whole entry): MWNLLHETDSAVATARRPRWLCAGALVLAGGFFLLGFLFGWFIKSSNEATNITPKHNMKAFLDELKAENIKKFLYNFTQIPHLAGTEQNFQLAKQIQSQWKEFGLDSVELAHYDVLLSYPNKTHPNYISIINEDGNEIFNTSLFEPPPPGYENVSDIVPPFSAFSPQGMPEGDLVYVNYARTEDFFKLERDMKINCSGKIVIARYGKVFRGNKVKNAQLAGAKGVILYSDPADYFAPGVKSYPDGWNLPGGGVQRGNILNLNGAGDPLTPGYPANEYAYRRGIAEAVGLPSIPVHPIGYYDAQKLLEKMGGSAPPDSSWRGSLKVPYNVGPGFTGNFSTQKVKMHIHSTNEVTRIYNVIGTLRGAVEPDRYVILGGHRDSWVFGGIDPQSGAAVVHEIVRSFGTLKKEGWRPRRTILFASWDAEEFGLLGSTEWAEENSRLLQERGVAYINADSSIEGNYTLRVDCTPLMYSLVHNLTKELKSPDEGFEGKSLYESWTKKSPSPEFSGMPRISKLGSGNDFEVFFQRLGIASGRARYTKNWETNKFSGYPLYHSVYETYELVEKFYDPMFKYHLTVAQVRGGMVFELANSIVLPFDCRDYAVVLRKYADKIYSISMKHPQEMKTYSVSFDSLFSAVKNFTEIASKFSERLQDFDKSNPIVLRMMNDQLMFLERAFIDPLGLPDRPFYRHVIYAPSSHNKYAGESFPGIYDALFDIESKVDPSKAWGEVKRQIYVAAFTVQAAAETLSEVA

B1: bs16430D (bispecific antibody, V domains shown)
VH 1: EVQLVESGGGLVQPGGSLRLSCAASGFTFSTYAMTWVRQAPGKGLEWVSFISGSGDNTYYADSVKGRFTISRDNSKNTLYLQMNSLRADDSAIYHCAKDSGYCSSGGCSLYFYYGMDVWGQGTTVTVSS
VH 2: QVQLVESGGGVVQPGRSLRLSCAASGFTFSSYGMHWVRQAPGKGLEWVAVISYAGNNKYYADSVKGRFTVSRDNSKKTLYLQMNSLRSEDTAVYYCAKDSYYDFLTDPDVLDIWGQGTMVTVSS
VL: not shown
notes: two distinct heavy chains with a common light chain; also called anti-PSMA×CD28 bispecific antibody; PSMA × CD28 monoclonal antibody
EC50 [1]: 5.24 nM
NFκB-luciferase EC50, reporter T-cells + HEK293/hCD20/hPSMA, 50 pM anti-CD3×CD20 [2]: 4.57e-10 M
NFκB-luciferase fold induction, reporter T-cells + HEK293/hCD20, 50 pM anti-CD3×CD20 [2]: 0.92 fold
NFκB-luciferase fold induction, reporter T-cells + HEK293/hCD20/hPSMA, 50 pM anti-CD3×CD20 [2]: 13.6 fold
IL-2 production EC50, primary CD4+ T-cells + HEK293/hCD20/hPSMA, 50 pM anti-CD3×CD20 [3]: 1.5e-10 M
IL-2 production fold induction, primary CD4+ T-cells + HEK293/hCD20, 50 pM anti-CD3×CD20 [3]: 1 fold
IL-2 production fold induction, primary CD4+ T-cells + HEK293/hCD20/hPSMA, 50 pM anti-CD3×CD20 [3]: 165 fold
EC50 [4]: 8.47 nM
ratio of binding signal (RLU) HEK293-hCD28/HEK293HZ at 11.1 nM [5]: 41 fold
ratio of binding signal (RLU) C4-2/HEK293HZ at 11.1 nM [6]: 10 fold
NFκB-luciferase fold induction, reporter T-cells + HEK293/hCD20, 50 pM hIgG4 isotype control (no TCR stimulation) [7]: 0.87 fold
NFκB-luciferase fold induction, reporter T-cells + HEK293/hCD20/hPSMA, 50 pM hIgG4 isotype control (no TCR stimulation) [7]: 0.89 fold

B2: bs16431D (bispecific antibody, V domains shown)
VH 1: B1 VH 2
VH 2: EVQLVESGGGLVQPGGSLRLSCAASGFTFSRNNMHWVRQAPGKGLEYVSGISSNGGRTYYADSVKGRFTISRDNSKNTLYLQMGGLRAADMAVYFCTRDDELLSFDYWGQGTLVTVSS
VL: not shown
notes: as for B1
NFκB-luciferase EC50, reporter T-cells + HEK293/hCD20/hPSMA, 50 pM anti-CD3×CD20 [2]: 2.78e-10 M
EC50 [8]: 167 nM
EC50 [9]: 180 nM
IL-2 production EC50, primary CD4+ T-cells + HEK293/hCD20/hPSMA, 50 pM anti-CD3×CD20 [3]: 2.2e-10 M
EC50 [10]: 0.35 nM
Kd [11]: 207 nM
T½ (dissociative half-life) [11]: 8.2 min
EC50 [4]: 5.31 nM
EC50 [12]: 6.33 nM
EC50 [13]: 1.5 nM
Kd [14]: 0.137 nM
T½ (dissociative half-life) [14]: 300 min
EC50 [15]: 180 nM

B3: mAb11838P2 (antibody, V domains shown)
VH: QVQLVESGGGVVQPGRSLRLSCAASGFTFSSYGMHWVRQAPGKGLEWVAFMSYDGSNKFYSDSVKGRFTISRDNSRKMLFLQMNNLRAEDTAVYYCARDQYYDFLTDHGVFDYWGQGTLVTVSS
VL: not shown
notes: Bivalent parental anti-PSMA antibody; also called anti-PSMA monoclonal antibody; mAb11838P2 (PSMA)
EC50 [10]: 0.738 nM
binding result [4]: no binding (tested: ratio to HEK293HZ less than 3 at 11.1 nM)
ratio of binding signal (RLU) HEK293-hCD28/HEK293HZ at 11.1 nM [5]: < 1 fold
ratio of binding signal (RLU) C4-2/HEK293HZ at 11.1 nM [6]: 4 fold

B4: bs16429D (bispecific antibody, human IgG4 S228P, kappa)
heavy 1: QVQLQESGPGLVKPSETLSLTCTVSGGSISSYYWSWIRQPPGKGLEWIGYIYYSGITHYNPSLKSRVTISVDTSKIQFSLKLSSVTAADTAVYYCARWGVRRDYYYYGMDVWGQGTTVTVSSASTKGPSVFPLAPCSRSTSESTAALGCLVKDYFPEPVTVSWNSGALTSGVHTFPAVLQSSGLYSLSSVVTVPSSSLGTKTYTCNVDHKPSNTKVDKRVESKYGPPCPPCPAPPVAGPSVFLFPPKPKDTLMISRTPEVTCVVVDVSQEDPEVQFNWYVDGVEVHNAKTKPREEQFNSTYRVVSVLTVLHQDWLNGKEYKCKVSNKGLPSSIEKTISKAKGQPREPQVYTLPPSQEEMTKNQVSLTCLVKGFYPSDIAVEWESNGQPENNYKTTPPVLDSDGSFFLYSRLTVDKSRWQEGNVFSCSVMHEALHNRFTQKSLSLSPGK
heavy 2: QVQLVESGGGVVQPGRSLRLSCAASGFTFSSYGMHWVRQAPGKGLEWVAFMSYDGSNKFYSDSVKGRFTISRDNSRKMLFLQMNNLRAEDTAVYYCARDQYYDFLTDHGVFDYWGQGTLVTVSSASTKGPSVFPLAPCSRSTSESTAALGCLVKDYFPEPVTVSWNSGALTSGVHTFPAVLQSSGLYSLSSVVTVPSSSLGTKTYTCNVDHKPSNTKVDKRVESKYGPPCPPCPAPPVAGPSVFLFPPKPKDTLMISRTPEVTCVVVDVSQEDPEVQFNWYVDGVEVHNAKTKPREEQFNSTYRVVSVLTVLHQDWLNGKEYKCKVSNKGLPSSIEKTISKAKGQPREPQVYTLPPSQEEMTKNQVSLTCLVKGFYPSDIAVEWESNGQPENNYKTTPPVLDSDGSFFLYSRLTVDKSRWQEGNVFSCSVMHEALHNHYTQKSLSLSLGK
light: not shown
notes: also called anti-PSMA×CD28 bispecific antibody; PSMA × CD28 monoclonal antibody
EC50 [1]: 0.853 nM
NFκB-luciferase EC50, reporter T-cells + HEK293/hCD20/hPSMA, 50 pM anti-CD3×CD20 [2]: 1.72e-10 M
Kd [16]: 272 nM
t½ (dissociative half-life) [16]: 1.7 min
EC50 [8]: 50.9 nM
Kd [17]: 0.396 nM
t½ (dissociative half-life) [17]: 146 min
EC50 [9]: 58.9 nM
IL-2 production EC50, primary CD4+ T-cells + HEK293/hCD20/hPSMA, 50 pM anti-CD3×CD20 [3]: 2.7e-10 M
Kd [11]: 144 nM
T½ (dissociative half-life) [11]: 3.5 min
EC50 [4]: 9.58 nM
EC50 [12]: 3.05 nM
EC50 [13]: 3.87 nM
Kd [14]: 0.251 nM
T½ (dissociative half-life) [14]: 235 min
EC50 [15]: 48 nM
Kd [18]: 0.217 nM
t½ (dissociative half-life) [18]: 182 min
EC50 [19]: 9.34 nM

Now from value to binder, other results behind:

T½ (dissociative half-life) [11]: 8.2 min
binding result [14]: no binding (tested: 10 nM)
B5: mAb14216P2 (antibody, V domains shown)
VH: B2 VH 2
VL: not shown
notes: Bivalent parental anti-CD28 antibody; also called anti-CD28 monoclonal antibody
binding result [1]: no binding (tested: ratio to HEK293HZ less than 3 at 11.1 nM)

NFκB-luciferase EC50, reporter T-cells + HEK293/hCD20, 50 pM anti-CD3×CD20 [2]: 3.59e-09 M
NFκB-luciferase EC50, reporter T-cells + HEK293/hCD20/hPSMA, 50 pM anti-CD3×CD20 [2]: 3.27e-09 M
binding result [20]: no binding
IL-2 production EC50, primary CD4+ T-cells + HEK293/hCD20, 50 pM anti-CD3×CD20 [3]: 6.05e-09 M
IL-2 production EC50, primary CD4+ T-cells + HEK293/hCD20/hPSMA, 50 pM anti-CD3×CD20 [3]: 8.69e-09 M
T½ (dissociative half-life) [11]: 3.5 min
NFκB-luciferase EC50, reporter T-cells + HEK293/hCD20, 50 pM hIgG4 isotype control (no TCR stimulation) [7]: 5.11e-09 M
NFκB-luciferase EC50, reporter T-cells + HEK293/hCD20/hPSMA, 50 pM hIgG4 isotype control (no TCR stimulation) [7]: 4.9e-09 M
binding result [14]: no binding (tested: 10 nM)
B6: mAb14226P2 (antibody, V domains shown)
VH: QVQLQESGPGLVKPSETLSLTCTVSGGSISSYYWSWIRQPPGKGLEWIGYIYYSGITHYNPSLKSRVTISVDTSKIQFSLKLSSVTAADTAVYYCARWGVRRDYYYYGMDVWGQGTTVTVSS
VL: not shown
notes: as for B5
